Assay results: paper doi:10.1101/2022.05.12.491222
One block for each substance: values may come before it.

What was measured:
[1] = target: LARGE1ΔTM treated with PNGase F (UniProt O95461); assay: SEC-MALS
[2] = target: LARGE2ΔTM (UniProt Q8N3Y3); assay: SAXS
[3] = target: LARGE2ΔTM (UniProt Q8N3Y3); assay: SEC-MALS
[4] = target: LARGE2ΔTM treated with PNGase F (UniProt Q8N3Y3); assay: SEC-MALS
[5] = target: LARGE1ΔTM (UniProt O95461); assay: SAXS
[6] = target: LARGE1ΔTM (UniProt O95461); assay: SEC-MALS

stoichiometry N [1]: 2
Substance: LARGE1ΔTM treated with PNGase F (from UniProt O95461 34-756) (enzyme)

stoichiometry N [2]: 2
stoichiometry N [3]: 2
Substance: LARGE2ΔTM (from UniProt Q8N3Y3 1-721) (enzyme)

stoichiometry N [4]: 2
Substance: LARGE2ΔTM treated with PNGase F (from UniProt Q8N3Y3 1-721) (enzyme)

stoichiometry N [5]: 2
stoichiometry N [6]: 2
Substance: LARGE1ΔTM (from UniProt O95461 34-756) (enzyme)
